Test results from the RNAGym collection of RNA variant scans (doi:10.7554/elife.80360).

B1: HDV Ribozyme (parent)
chain: GGCCGGCAUGGUCCCAGCCUCCUCGCUGGCGCCGGCUGGGCAACAUUCCGAGGGGACCGUCCCCUCGGUAAUGGCGAAUGGGACCCA

Variants of: B1
Assay: self-cleavage, relative activity (ratio to wild type); higher = more cleavage; co-transcriptional

Variant | self-cleavage
C32U U69C | 1.19
C33A C75U | 0.0563
C33A C75A | 0.122
C33A C57G | 0.332
C32U C48A | 1.04
C32U C48G | 1.04
C32U C84A | 0.753
C32U C85U | 0.725
C32U G74C | 0.224
C32U G55A | 0.967
C32G G81U | 0.0639
C33A U46G | 0.0615
C32G G39C | 0.116
C32G G39U | 0.0563
C33A A45G | 0.0536
C33G A77C | 0.115
C33G A77G | 0.138
C32G C49G | 0.135
C32G A56U | 0.0482
C32U C49A | 0.683
G31U U72C | 0.163
C32G U46C | 0.0978
C32U G73A | 0.364
C32G C44G | 0.0426

Variant | self-cleavage
C32U A43G | 0.63
C32U A43U | 0.491
C32A C85U | 0.231
C33A G80A | 0.123
C32G G54U | 0.153
C32A G74U | 0.117
C32A U46C | 0.128
C32A U46G | 0.138
C32U G68C | 0.803
C32G A43G | 0.0489
C32G G35C | 0.0386
C32G G35U | 0.0583
C32U C44G | 0.374
C32U U60A | 0.782
C32A G38U | 0.181
C32G U47A | 0.244
C32G U79A | 0.19
C32G U79G | 0.172
C32A C48U | 0.106
C32A C63U | 0.332
C33G A51U | 0.0811
C33G A51C | 0.246
C32U G40A | 0.987
C32U U47C | 0.764

Variant | self-cleavage
C33A C86G | 0.277
C33A C86U | 0.244
C32U G39U | 0.486
C32A A71C | 0
C33G C48G | 0.227
C32A U65G | 0.122
C32U C75G | 0.17
C32G C36A | 0.125
C33A C41U | 0.163
C33A C58G | 0.332
C32G U65A | 0.0545
C32G A51G | 0.0665
C32G A51C | 0.0489
C32U C86A | 0.69
C33A U79G | 0.214
C32U C57A | 0.817
C32U C57U | 0.843
C32U C57G | 0.975
C32U G53A | 1.01
C33G A70G | 0.104
C32G G52C | 0.208
C32U C66U | 0.926
C32A C86G | 0.243
C32U A77C | 0.162

Variant | self-cleavage
C32A A56U | 0.369
C32A U60A | 0.252
C32A U60C | 0.213
C33A A87U | 0.226
C32U A71G | 0.903
C32U A71U | 0.565
C32U G67A | 0.857
C32U G80U | 0.145
C33A G68U | 0.102
C33A U72G | 0.122
C32A C84A | 0
C32A C36G | 0.162
C32A C36A | 0
C32A C36U | 0.0733
C33A A51U | 0.373
C33A G35A | 0.151
C32G G80C | 0
C32U G82U | 0.256
C32G C75A | 0.154
C33G A43C | 0.0723
C33G A43G | 0
C32U G35C | 0.0573
G31U G81U | 0.23
C33A C85A | 0.18

Variant | self-cleavage
C32A C49A | 0.415
C32G G67C | 0.149
C33A G67U | 0.253
C33G A45C | 0.0449
C32U G38U | 0.205
C33G C62A | 0.225
C32G C64G | 0.0405
C33G A78C | 0
C32U C64G | 0.875
C33A A78C | 0.0997
C33A U37A | 0.151
C32A C75A | 0.0723
C32G U60G | 0.196
C32A G54U | 0.102
C33A G81U | 0.0978
C32U C62G | 0.727
C32G U37C | 0.264
C32A G35C | 0.0405
C33A G34C | 0.108
C33A A43G | 0
C33G A71U | 0.213
C33A U47C | 0.0692
C33A U47A | 0.0378
C32U A56G | 0.872

Variant | self-cleavage
G31U U47G | 0.32
C32U G81C | 0.248
C32G C41A | 0.0354
C32A U37C | 0.203
C32G C58G | 0.0773
C32G C58U | 0.0234
G31U U37G | 0.107
C33A U60G | 0.116
C32U C61G | 0.791
C32G C33U | 0.115
C32G G38U | 0.089
C33A G55C | 0.181
C32U C58U | 0.831
C32A G53A | 0.234
C32U G34A | 0.0302
C32U G34C | 0.0875
C32U G34U | 0.215
C32A G52U | 0.134
C32A A83C | 0.0665
C33A G82U | 0.0332
C33A G82A | 0.102
C32A G82C | 0.0396
C32A U79C | 0.0733
C32A U79G | 0.133

Variant | self-cleavage
C32U U79G | 0.504
C32A U69C | 0.161
C32G G34U | 0.0415
C32G G34A | 0.0875
C32G C57A | 0.106
G31U U46G | 0.38
G31U U46A | 0.0755
C33A A83U | 0.217
C32U A83C | 0.232
C32U A83G | 0.501
C32A C64G | 0.131
C32A C64A | 0.166
C32U U46A | 0.573
G31U G76U | 0.585
C32U G52A | 0.805
C32U G52U | 0.963
C32U G50A | 0.862
C32U G50U | 0.844
G31U U79C | 0.107
C33A G40U | 0.23
C33A A42U | 0.0314
G31U U69A | 0.511
G31U U65C | 0.339
